One series concerns CsgG. The series is described as follows: Pulldown assay of CsgF variants/domains with CsgG as bait. It is filed as binding, E. coli K12. The note with it: CsgF variants with C-terminal MBP tag. The procedure:
The procedure of CsgG purification was similar to that of the CsgFG complex. […] After incubation for 30 min, the mixture was loaded into a Strep-Tactin column (IBA). […] Individual CsgG and CsgF variants were purified as input by Strep-Tactin and Ni-NTA, respectively. The samples were analyzed by 15% SDS–PAGE and stained with Coomassie blue.
CsgFGBD-MBP mutant variants were purified as soluble protein by Ni-NTA. CsgG were purified as membrane protein by Strep-Tactin and substituted by amphipole A8-35. CsgFGBD-MBP mutant variants (36 μM) and CsgG nonamer (2 μM) were mixed together at 4 °C for 2 h and then incubated with equal volume of Strep-Tactin beads at 4 °C for 1 h.
Supplementary Figure 5. Interaction mode between CsgFN and CsgG. a, Interaction of CsgFN and CsgG. […] Two adjacent subunits of CsgG are shown in magenta and cyan, respectively. b, Hydrogen bonds and electrostatic interaction between CsgFN and CsgG. Hydrogen bonds are shown as red […]
aromatic residues in CsgG. d, The hydrophobic interaction between CsgFN and CsgG. e, Pulldown assay between the CsgF(C-terminal MBP tag) mutant variants and CsgG. […] Source data are provided as a Source Data file.
(1 picture or pasted object on this page, not shown here)

Another series has as its system CsgB. The series is described as follows: Pulldown assay of CsgB by CsgF domains. It is filed as binding, E. coli. The note with it: CsgB C-terminal MBP tag, CsgF parts N-terminal MBP tag; western blot. In general terms: A western blot detects proteins with antibodies after separation by electrophoresis.
For series [1], the target named is T1, Wild-type CsgG (expressed alone) (E. coli K12, UniProt P0AEA2 16-277).
T1 construct: also called CsgG nonamer; nonameric CsgG
T1 sequence (looked up): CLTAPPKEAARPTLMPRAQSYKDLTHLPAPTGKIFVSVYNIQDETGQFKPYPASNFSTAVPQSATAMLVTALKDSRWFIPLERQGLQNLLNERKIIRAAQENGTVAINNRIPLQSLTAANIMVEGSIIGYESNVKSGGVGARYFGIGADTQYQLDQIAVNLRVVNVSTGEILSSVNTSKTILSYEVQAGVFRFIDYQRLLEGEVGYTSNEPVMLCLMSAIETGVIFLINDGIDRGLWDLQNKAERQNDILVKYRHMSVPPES
The series is described as follows: ITC; MicroCal ITC200, 25 °C; nonameric CsgG in amphipole A8-35 in the cell (2 or 10 μM), CsgFN-MBP (200 μM), CsgAN6 peptide (1 mM) or PeptideN (60 µM) in the syringe; 10 mM HEPES pH 7.5, 50 mM NaCl. Conditions: both partners purified. In general terms: Isothermal titration calorimetry measures the heat released or taken up as one component is titrated into another.

Series [2] concerns the target T2, Wild-type CsgG (expressed alone) (E. coli K12, UniProt P0AEA2 16-277).
T2 chain: T1 sequence (looked up)
The series is described as follows: ITC.

Series [3] concerns the molecule itself. The series is described as follows: cryo-EM structure; CsgFG complex co-expressed from the CsgEFG operon, purified in LDAO; single-particle cryo-EM, 3.8 Å without symmetry, 3.38 Å with C9 symmetry.
Series [4] has as its system curli cell association in E. coli K-12 strain BW25113. The series is described as follows: Congo red cell-association assay. It is filed as cell-based, E. coli K-12 BW25113. The note with it: CsgF variants, scraped YESCA plates after 48 h. The procedure: (§1) The E. coli K-12 strain BW25113 wild type (WT) and mutants were cultured overnight in LB at 37 °C. To induce curli production, 5 μl sample was spotted on YESCA plates (10 g/L casamino acids, 1 g/L yeast extract, and 20 g/L Bacto agar) supplemented with 100 μg/ml ampicillin and 90 μg/ml Congo red. The plates were incubated at 26 °C for 48 h. […] For overexpression assay in the ΔCsgE mutant strain, 3 μM IPTG was also supplemented in the YESCA plates.
For the Congo red cell-association assay, after growing in YESCA plates for 48 h, the cells were scraped from the plates and the scraped plates were observed. The remaining plates with curli cell association appeared white, while the remaining plates without curli cell association appeared red.

Series [5] relates to curli production in E. coli K-12 strain BW25113. The series is described as follows: Congo red secretion assay of CsgF, CsgA or CsgG variants. It is filed as cell-based, E. coli K-12 BW25113. The procedure:
as §1

Usually Kd stands for the concentration at which binding is half-saturated. Low readings indicate a tighter complex, high ones a looser complex. The term stoichiometry N denotes a count of units in the complex or per binding partner.

Where a chain is given by its changes, count along the chain named. In names and notes the source's numbering stands. Entries after “also recorded” stand apart in the source; their conditions may differ.

Protocol for CsgB: After incubation for 20 min, the mixture was loaded to a Strep-Tactin column (IBA). The beads were washed four times with a buffer having 25 mM Tris-HCl at pH 8.0, 150 mM NaCl, and eluted in a buffer having 25 mM Tris-HCl at pH 8.0, 150 mM NaCl, and 2.5 mM desthiobiotin. […] The samples were analyzed by 15% SDS–PAGE and detected by western blotting.

Turning to “CsgFN: N-terminal domain of CsgF (CsgFN, residues 1–36)”, in the series with CsgG, the “CsgF-CsgG interaction in pulldown” value was “CsgG can pulldown both the full-length CsgF and CsgFN”. The “pulldown of CsgB” value in the series on CsgB is reported as “could not pulldown CsgB”.

B1: PeptideN_(N17R) (peptide)
peptide: GTMTFQFRNPNFGGNPR
notes: source: synthetic peptide
For B1, the binding result in series [1] is “binds”. Further, binding in series [2] was put at a Kd of 0.0141 µM.

B2: CsgF (from the CsgEFG operon) (natural protein, E. coli K12, UniProt P0AE98 20-138, looked up)
chain: GTMTFQFRNPNFGGNPNNGAFLLNSAQAQNSYKDPSYNDDFGIETPSALDNFTQAIQSQILGGLLSNINTGKPGRMVTNDYIVDIANRDGQLQLNVTDRKTGQTSTIQVSGLQNNSTDF
notes: also called CsgFN (residues 1-36) and CsgFC (residues 37-119) are its domains; source: E. coli BL21 (DE3), co-expressed from the CsgEFG operon, co-purified with CsgG (Strep-Tactin, SEC)
Consider B2, for which the “stoichiometry N” value in series [3] is 9 subunits.

B3: F12D (protein)
chain: B2 chain with F12D
modifications: left off: MBP, end not stated, kept | His tag (from the Ni-NTA purification), end not stated, state not stated
For the molecule B3, the “CsgF-CsgG interaction in pulldown” value with CsgG was “abolished the interaction between CsgF and CsgG”. Besides, the “Congo red cell-association phenotype” value in series [4] is listed as “nearly eliminated”.

B4: F5D (protein)
chain: B2 chain with F5D
modifications: left off: MBP, end not stated, kept | His tag (from the Ni-NTA purification), end not stated, state not stated
Regarding B4, the “CsgF-CsgG interaction in pulldown” value in the series with CsgG was “abolished the interaction between CsgF and CsgG”. For the same molecule, the “Congo red cell-association phenotype” value in series [4] was “nearly eliminated”.

B5: CsgFN17R: N17R-mutated CsgF (protein, UniProt P0AE98 20-138, looked up, variant N17R)
Curli production …: B2 chain with N17R
For B5, in series [5] (CsgF variants in ∆CsgF strain, YESCA/Congo red plates, 26 °C, 48 h), the “Congo red secretion phenotype (curli formation)” value was “loss of the Congo red phenotype”. Further, in series [5] (N17R-mutated CsgF expressed in wild type (WT) strain), the “Congo red secretion phenotype” value is on record as “largely reduced Congo red phenotype”.

B6: F7D (protein)
chain: B2 chain with F7D
modifications: left off: MBP, end not stated, kept | His tag (from the Ni-NTA purification), end not stated, state not stated
For B6, the “CsgF-CsgG interaction in pulldown” value in the series with CsgG was “abolished the interaction between CsgF and CsgG; also recorded: didn’t see binding”. The “Congo red cell-association phenotype” value in series [4] is “nearly eliminated”.

B7: F21D (protein)
chain: B2 chain with F21D
modifications: left off: MBP, end not stated, kept | His tag (from the Ni-NTA purification), end not stated, state not stated
For the molecule B7, the “CsgF-CsgG interaction in pulldown” value in the series on CsgG was “did not show any detectable influence on CsgF-CsgG interaction”.

B8: N11A (protein)
chain: B2 chain with N11A
modifications: left off: MBP, end not stated, kept | His tag (from the Ni-NTA purification), end not stated, state not stated
In the case of B8, in the series on CsgG, the “CsgF-CsgG interaction in pulldown” value is “did not show any detectable influence on CsgF-CsgG interaction”.

B9: L22D (protein)
chain: B2 chain with L22D
modifications: left off: MBP, end not stated, kept | His tag (from the Ni-NTA purification), end not stated, state not stated
B9: the “CsgF-CsgG interaction in pulldown” value with CsgG is “showed reduced interaction between CsgF and CsgG”.

B10: L23D (protein)
chain: B2 chain with L23D
modifications: left off: MBP, end not stated, kept | His tag (from the Ni-NTA purification), end not stated, state not stated
On to B10, for which the “CsgF-CsgG interaction in pulldown” value with CsgG is “showed reduced interaction between CsgF and CsgG”.

B11: N9A (protein)
chain: B2 chain with N9A
modifications: left off: MBP, end not stated, kept | His tag (from the Ni-NTA purification), end not stated, state not stated
As to B11, the “CsgF-CsgG interaction in pulldown” value with CsgG is “showed reduced interaction between CsgF and CsgG”.

B12: R8A (protein)
chain: B2 chain with R8A
modifications: left off: MBP, end not stated, kept | His tag (from the Ni-NTA purification), end not stated, state not stated
For the molecule B12, the “CsgF-CsgG interaction in pulldown” value in the series on CsgG is “showed reduced interaction between CsgF and CsgG”.

B13: CsgG (from the CsgEFG operon construct with C-terminal strep-tag II) (natural protein, E. coli K12, UniProt P0AEA2 16-277, looked up)
chain: T1 sequence (looked up)
notes: also called CsgG channel; CsgG subcomplex; source: E. coli BL21 (DE3), co-expressed from the CsgEFG operon; membrane fraction solubilised in DDM/LDAO, purified (Strep-Tactin, SEC); not shown: strep-tag II, C-terminal, kept
For the molecule B13, the “stoichiometry N” value in series [3] amounted to 9 subunits.

B14: CsgFC: CsgF C-terminal domain (residues 37–119) (protein)
chain: YNDDFGIETPSALDNFTQAIQSQILGGLLSNINTGKPGRMVTNDYIVDIANRDGQLQLNVTDRKTGQTSTIQVSGLQNNSTDF
modifications: left off: MBP, C-terminal, kept | His tag (from the Ni-NTA purification of the input), end not stated, state not stated
For the molecule B14, the “CsgF-CsgG interaction in pulldown” value in the series with CsgG is “unlikely to interact with CsgG”. Further, the “pulldown of CsgB” value in the series on CsgB was “full-length CsgF and CsgFC could”.

B15: CsgAN6 peptide (peptide)
peptide: GVVPQY
As to B15, the Kd in series [1] was found to be 23.8 µM.
